In article PMC5490006 (Nature Communications, 2017):
Each block holds one binder with its values, some of them ahead of it.

What was measured:
Details in all cases: both partners purified
Mcm6 = biological target: T1, Mcm6 (budding yeast, UniProt P53091 1-1017); experiment: pull-down; Cdt1 FLAG held on M2 anti-FLAG agarose, Mcm6 fl or ΔC in solution; 10 μg of each protein, buffer B, 60 min at 4 °C; eluted with FLAG peptide; Coomassie
T1 construct: Mcm6, subunit of the budding yeast MCM (Mcm2-7), expressed as an individual subunit; called Mcm6 fl and the full-length protein; also called Mcm6 fl; full-length Mcm6; source: E. coli, purified

[1] = biological target: T2, Mcm6 within purified Cdt1–MCM complexes (budding yeast, UniProt P53091 1-1017); experiment: cross-linking; MCM-Cdt1 FLAG complex (200 μg) crosslinked with 20, 50 and 100 μM BS3; denatured with SDS; denaturing anti-FLAG immunoprecipitation; silver staining, bands identified by immunoblotting and mass spectrometry
T2 construct: Mcm6, yeast MCM subunit, as part of the Cdt1-MCM complex; source: purified Cdt1-MCM complex

[2] = biological target: T2, Mcm6 within purified Cdt1–MCM complexes; experiment: negative-stain electron microscopy; single-particle EM of the Cdt1-MCM complex, apo and with ATPγS, 2% uranyl formate; 3D reconstruction (20.4 and 18.0 Å) with docking of MCM atomic structures and of the Cdt1 NM crystal structure
[3] = biological target: T3, Mcm6 tagged with GFP-FLAG, within an MCM-GFP,FLAG–Cdt1 complex (budding yeast, UniProt P53091 1-1017); experiment: cross-linking; MCM-GFP,FLAG-Cdt1 complexes (20 μg) crosslinked with 25 μM BS3, 30 min room temperature, buffer B; denatured with SDS; immunoprecipitation with anti-FLAG beads under denaturing conditions; western blot against Cdt1
T3 construct: Mcm6, budding yeast MCM subunit; also called Mcm6-GFP-FLAG; source: purified MCM-GFP,FLAG-Cdt1 complex; not shown: GFP, C-terminal, kept; FLAG, C-terminal, kept

Mcm4 = biological target: T4, Mcm4 (budding yeast, UniProt P30665 1-933); experiment: SEC; 10 μg of each Mcm subunit combined as pairs 3/7, 4/7 and 2/6, dialysed against buffer A, fractionated over Superdex 200 PC 3.2/30 in buffer A; fractions with the dimers pooled
T4 construct: Mcm4, subunit of the budding yeast MCM (Mcm2-7), expressed as an individual subunit; source: E. coli, purified
T4 sequence (looked up): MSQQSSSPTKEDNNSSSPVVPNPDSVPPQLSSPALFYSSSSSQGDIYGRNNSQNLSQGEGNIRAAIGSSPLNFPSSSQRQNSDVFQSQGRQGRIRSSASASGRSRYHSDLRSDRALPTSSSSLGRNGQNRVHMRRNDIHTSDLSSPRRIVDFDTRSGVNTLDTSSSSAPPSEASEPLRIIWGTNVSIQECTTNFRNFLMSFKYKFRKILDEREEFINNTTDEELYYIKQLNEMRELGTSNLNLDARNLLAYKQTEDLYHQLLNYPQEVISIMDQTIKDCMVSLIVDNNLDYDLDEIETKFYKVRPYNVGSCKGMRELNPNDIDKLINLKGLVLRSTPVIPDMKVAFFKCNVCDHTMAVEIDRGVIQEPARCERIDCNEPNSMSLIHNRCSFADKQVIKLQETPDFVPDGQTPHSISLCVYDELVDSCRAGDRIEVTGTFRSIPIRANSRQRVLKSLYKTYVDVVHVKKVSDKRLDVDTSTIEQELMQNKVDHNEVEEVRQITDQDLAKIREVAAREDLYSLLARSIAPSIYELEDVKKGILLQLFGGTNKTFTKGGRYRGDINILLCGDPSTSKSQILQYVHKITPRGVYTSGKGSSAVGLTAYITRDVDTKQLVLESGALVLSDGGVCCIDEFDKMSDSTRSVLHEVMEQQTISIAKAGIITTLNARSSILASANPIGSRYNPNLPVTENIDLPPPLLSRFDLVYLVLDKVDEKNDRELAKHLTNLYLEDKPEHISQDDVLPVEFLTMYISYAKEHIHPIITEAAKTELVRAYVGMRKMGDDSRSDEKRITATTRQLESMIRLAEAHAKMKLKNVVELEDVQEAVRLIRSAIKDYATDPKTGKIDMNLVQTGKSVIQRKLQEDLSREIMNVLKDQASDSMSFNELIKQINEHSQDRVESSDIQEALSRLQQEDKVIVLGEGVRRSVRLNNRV

Mcm3 = biological target: T5, Mcm3 (budding yeast, UniProt P24279 1-971); experiment: as above
T5 construct: Mcm3, subunit of the budding yeast MCM (Mcm2-7), expressed as an individual subunit; source: E. coli, purified
T5 sequence (P24279 whole entry): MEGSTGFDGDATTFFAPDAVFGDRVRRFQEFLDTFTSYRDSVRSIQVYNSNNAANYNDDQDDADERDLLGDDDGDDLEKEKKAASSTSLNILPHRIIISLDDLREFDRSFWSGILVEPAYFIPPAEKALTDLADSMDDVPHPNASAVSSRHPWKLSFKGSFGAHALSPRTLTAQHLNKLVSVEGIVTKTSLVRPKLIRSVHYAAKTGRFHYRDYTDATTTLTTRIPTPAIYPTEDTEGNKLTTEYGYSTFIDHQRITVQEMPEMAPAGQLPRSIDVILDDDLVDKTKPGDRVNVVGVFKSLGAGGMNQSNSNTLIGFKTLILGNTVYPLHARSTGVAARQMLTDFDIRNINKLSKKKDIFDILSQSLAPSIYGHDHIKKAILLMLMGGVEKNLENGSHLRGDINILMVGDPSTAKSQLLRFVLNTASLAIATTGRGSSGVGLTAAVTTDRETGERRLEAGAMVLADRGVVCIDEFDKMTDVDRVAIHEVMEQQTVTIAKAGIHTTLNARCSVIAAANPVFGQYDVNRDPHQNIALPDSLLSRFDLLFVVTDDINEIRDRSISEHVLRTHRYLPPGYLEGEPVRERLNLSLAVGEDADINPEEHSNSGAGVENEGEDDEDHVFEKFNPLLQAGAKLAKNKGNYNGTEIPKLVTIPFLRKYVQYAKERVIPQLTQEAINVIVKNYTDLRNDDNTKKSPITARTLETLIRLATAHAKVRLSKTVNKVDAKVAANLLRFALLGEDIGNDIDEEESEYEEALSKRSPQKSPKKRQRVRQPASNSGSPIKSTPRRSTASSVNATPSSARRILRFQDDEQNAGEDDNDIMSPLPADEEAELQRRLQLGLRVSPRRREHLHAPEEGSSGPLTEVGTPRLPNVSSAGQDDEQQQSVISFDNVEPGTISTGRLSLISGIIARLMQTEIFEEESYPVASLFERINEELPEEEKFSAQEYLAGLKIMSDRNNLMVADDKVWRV

T2 sequence (P53091 whole entry, one chain of several): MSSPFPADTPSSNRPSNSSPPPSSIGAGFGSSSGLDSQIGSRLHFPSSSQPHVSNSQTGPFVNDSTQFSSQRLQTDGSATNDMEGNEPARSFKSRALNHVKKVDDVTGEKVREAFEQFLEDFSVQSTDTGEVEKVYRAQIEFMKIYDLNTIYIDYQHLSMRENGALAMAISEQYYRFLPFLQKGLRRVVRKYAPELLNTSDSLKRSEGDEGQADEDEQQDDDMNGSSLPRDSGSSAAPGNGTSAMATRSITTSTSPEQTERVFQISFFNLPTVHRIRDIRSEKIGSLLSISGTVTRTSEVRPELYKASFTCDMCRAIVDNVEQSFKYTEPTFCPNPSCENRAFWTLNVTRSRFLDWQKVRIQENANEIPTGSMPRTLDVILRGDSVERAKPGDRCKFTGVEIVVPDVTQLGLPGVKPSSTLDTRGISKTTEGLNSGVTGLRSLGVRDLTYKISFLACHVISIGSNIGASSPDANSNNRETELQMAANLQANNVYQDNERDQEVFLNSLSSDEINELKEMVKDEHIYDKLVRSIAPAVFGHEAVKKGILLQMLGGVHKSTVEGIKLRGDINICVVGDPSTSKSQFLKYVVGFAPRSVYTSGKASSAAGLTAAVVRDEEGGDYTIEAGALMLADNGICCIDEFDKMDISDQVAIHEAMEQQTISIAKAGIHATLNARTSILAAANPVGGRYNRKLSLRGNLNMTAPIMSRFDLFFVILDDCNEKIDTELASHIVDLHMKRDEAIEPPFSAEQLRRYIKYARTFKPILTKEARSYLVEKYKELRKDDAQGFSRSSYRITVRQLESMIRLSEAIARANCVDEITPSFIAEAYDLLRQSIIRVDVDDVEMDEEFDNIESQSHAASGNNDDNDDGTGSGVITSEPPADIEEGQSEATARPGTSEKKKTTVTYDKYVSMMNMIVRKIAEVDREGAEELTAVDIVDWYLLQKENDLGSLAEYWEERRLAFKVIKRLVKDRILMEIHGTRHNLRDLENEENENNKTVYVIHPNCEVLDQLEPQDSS
T1 sequence (P53091 whole entry): as the sequence (P53091 whole entry, one chain of several) above
T3 sequence (P53091 whole entry, one chain of several): as above

binding result (Mcm6): binds | binding result [1]: binds
B1: Cdt1 FLAG (natural protein, S. cerevisiae, UniProt P47112 1-604, looked up)
chain: MSGTANSRRKEVLRVPVIDLNRVSDEEQLLPVVRAILLQHDTFLLKNYANKAVLDALLAGLTTKDLPDTSQGFDANFTGTLPLEDDVWLEQYIFDTDPQLRFDRKCRNESLCSIYSRLFKLGLFFAQLCVKSVVSSAELQDCISTSHYATKLTRYFNDNGSTHDGADAGATVLPTGDDFQYLFERDYVTFLPTGVLTIFPCAKAIRYKPSTMATTDNSWVSIDEPDCLLFHTGTLLARWSQGMHTTSPLQIDPRANIVSLTIWPPLTTPISSKGEGTIANHLLEQQIKAFPKVAQQYYPRELSILRLQDAMKFVKELFTVCETVLSLNALSRSTGVPPELHVLLPQISSMMKRKIVQDDILKLLTIWSDAYVVELNSRGELTMNLPKRDNLTTLTNKSRTLAFVERAESWYQQVIASKDEIMTDVPAFKINKRRSSSNSKTVLSSKVQTKSSNANALNNSRYLANSKENFMYKEKMPDSQANLMDRLRERERRSAALLSQRQKRYQQFLAMKMTQVFDILFSLTRGQPYTETYLSSLIVDSLQDSNNPIGTKEASEILAGLQGILPMDISVHQVDGGLKVYRWNSLDKNRFSKLLQIHKSKQQD
notes: Cdt1, S. cerevisiae, FLAG-tagged; also called FLAG-tagged Cdt1; source: purified; alone for the pull-downs, within the MCM-Cdt1 FLAG complex for the crosslinking

binding result [2]: binds | binding result [3]: binds
B2: Cdt1 within purified Cdt1–MCM complexes (natural protein, S. cerevisiae, UniProt P47112 1-604, looked up)
chain: MSGTANSRRKEVLRVPVIDLNRVSDEEQLLPVVRAILLQHDTFLLKNYANKAVLDALLAGLTTKDLPDTSQGFDANFTGTLPLEDDVWLEQYIFDTDPQLRFDRKCRNESLCSIYSRLFKLGLFFAQLCVKSVVSSAELQDCISTSHYATKLTRYFNDNGSTHDGADAGATVLPTGDDFQYLFERDYVTFLPTGVLTIFPCAKAIRYKPSTMATTDNSWVSIDEPDCLLFHTGTLLARWSQGMHTTSPLQIDPRANIVSLTIWPPLTTPISSKGEGTIANHLLEQQIKAFPKVAQQYYPRELSILRLQDAMKFVKELFTVCETVLSLNALSRSTGVPPELHVLLPQISSMMKRKIVQDDILKLLTIWSDAYVVELNSRGELTMNLPKRDNLTTLTNKSRTLAFVERAESWYQQVIASKDEIMTDVPAFKINKRRSSSNSKTVLSSKVQTKSSNANALNNSRYLANSKENFMYKEKMPDSQANLMDRLRERERRSAALLSQRQKRYQQFLAMKMTQVFDILFSLTRGQPYTETYLSSLIVDSLQDSNNPIGTKEASEILAGLQGILPMDISVHQVDGGLKVYRWNSLDKNRFSKLLQIHKSKQQD
notes: also called Cdt1 (in MCM-GFP,FLAG–Cdt1 complexes and in the Cdt1–MCM complex used for electron microscopy); source: purified Cdt1-MCM complex

binding result (Mcm4): binds | binding result (Mcm3): binds
B3: Mcm7 (natural protein, budding yeast, UniProt P38132 1-845, looked up)
chain: MSAALPSIQLPVDYNNLFNEITDFLVTFKQDTLSSDATRNENEDENLDAENIEQHLLEKGPKYMAMLQKVANRELNSVIIDLDDILQYQNEKFLQGTQADDLVSAIQQNANHFTELFCRAIDNNMPLPTKEIDYKDDVLDVILNQRRLRNERMLSDRTNEIRSENLMDTTMDPPSSMNDALREVVEDETELFPPNLTRRYFLYFKPLSQNCARRYRKKAISSKPLSVRQIKGDFLGQLITVRGIITRVSDVKPAVEVIAYTCDQCGYEVFQEVNSRTFTPLSECTSEECSQNQTKGQLFMSTRASKFSAFQECKIQELSQQVPVGHIPRSLNIHVNGTLVRSLSPGDIVDVTGIFLPAPYTGFKALKAGLLTETYLEAQFVRQHKKKFASFSLTSDVEERVMELITSGDVYNRLAKSIAPEIYGNLDVKKALLLLLVGGVDKRVGDGMKIRGDINVCLMGDPGVAKSQLLKAICKISPRGVYTTGKGSSGVGLTAAVMKDPVTDEMILEGGALVLADNGICCIDEFDKMDESDRTAIHEVMEQQTISISKAGINTTLNARTSILAAANPLYGRYNPRLSPLDNINLPAALLSRFDILFLMLDIPSRDDDEKLAEHVTYVHMHNKQPDLDFTPVEPSKMREYIAYAKTKRPVMSEAVNDYVVQAYIRLRQDSKREMDSKFSFGQATPRTLLGIIRLSQALAKLRLADMVDIDDVEEALRLVRVSKESLYQETNKSKEDESPTTKIFTIIKKMLQETGKNTLSYENIVKTVRLRGFTMLQLSNCIQEYSYLNVWHLINEGNTLKFVDDGTMDTDQEDSLVSTPKLAPQTTASANVSAQDSDIDLQDA
notes: Mcm7, subunit of the budding yeast MCM (Mcm2-7), expressed as an individual subunit; source: E. coli, purified
